Assay results reported in patent publication US20210292393A1 (published 2021).
Positions count from the first letter of the chain named.

B1: antibody 324 (antibody, V domains shown)
VH: QVQLQESGPGLVKPSGTLSLTCAVSGGSISSSNWWSWVRQPPGKGLEWIGEIYHSGSTNYNPSLKSRVTISVDNSKNQFSLKLSSVTAADTAVYYCARESVAAAGISYYYYGMDVWGQGTTVTVSS
VL: EIVLTQSPGTLSLSPGERATLSCRASQSVSGRYLAWYQQKPGQAPRLLIYGASSRATGIPDRFSGSGSGTDFTLTISRLEPEDFAVYYCQHYGSSPGTFGQGTRLEIK
B2: antibody 329 (antibody, V domains shown)
VH: EVQLVESGGGLVQPGGSLRLSCAASGFTFSSYWMHWVRQAPGKGLVWVSRINSDGSSTSYADSVKGRFTISRDNAKNTLYLQMNSLRAEDTAVYYCAREGIVATITLDYWGQGTLVTVSS
VL: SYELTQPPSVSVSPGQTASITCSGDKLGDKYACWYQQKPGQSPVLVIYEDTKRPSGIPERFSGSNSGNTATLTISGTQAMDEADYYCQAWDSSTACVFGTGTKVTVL
B3: antibody 326 (antibody, V domains shown)
VH: QITLKESGPTLVKPTQTLTLTCTFSGFSLNTSGVGVGWIRQPPGKALEWLSLIFWNDDKRYSPSLRSRLTITKDTSKNQVVLTMTNMDPVDTATYFCAHRNSGWSLKFDSWGQGSLVTVSA
VL: DIQMTQSPSSVSASVGDRVTITCRARQGISSWLVWYQQKPGKAPKLLIFGASSLQSGVPSRFNASGTGTEFTLTISSLQPEDFATYYCQQADSFPITFGQGTRLEIK
B4: antibody 323 (antibody, V domains shown)
VH: QVQLVQSGAEVKKPGASVKVSCKVSGYTLTELSMHWVRQAPGKGLEWMGGFDPEDGETIYAQKFQGRVTMTEDTSTDTAYMELSSLRSEDTAVYYCATSTIFAPGGWFDPWGQGTLVTVSS
VL: QSALTQPASVSGSPGQSITISCTGTSSDVGSYNLVSWYQQHPGKAPKLMIYEVSKRPSGVSNRFSGSKSGNTASLTISGLQAEDEADYYCCSYAGSTHYVFGTGTKVTVL
B5: antibody 331 (antibody, V domains shown)
V domain 1: QITLKESGPTLVKPTETLTLTCSFSGFSLTKTGEAAGWIRQAPGRALEWVTVIFWDDDKRYSPSLQNRISVTKDTSKNQVVLRMTNVARFDTGTYFCWAMGGPGKEYFGQGTLVAVSS
V domain 2: QSVLTQPPSVSGAPGQRVTISCTGTSSSIGPYSDVHWYQHVSGKAPRLLIFGNSNRPSGVPDRFSGSKSGTSASLVIAGLQAEDEADYYCQSYDSSLGEIYVFGTGTTVTVL
B6: antibody 339 (antibody, V domains shown)
V domain 1: B5 V domain 1 with K31R, N67S, I69L, S70T, R83T, G93A, L113Q
V domain 2: B5 V domain 2
B7: antibody 340 (antibody, V domains shown)
VH: QVQLVQSGAEVKKPGASVKVSCKASGYTFTSYDINWVRQATGQGLEWMGWMNPNSGNTGYAQKFQGRVTMTRNTSISTAYMELSSLRSEDTAVYYCARGRYCTGGVCWGDWYFDLWGRGTLVTVSS
VL: QSVLTQPPSVSGAPGQRVTISCTGSSSNIGAGYDVHWYQQLPGTAPKFLIYGNSNRPSGVPDRFSGSKSGTSASLAITGLQAEDEADYYCQSYDSSLSGPVFGGGTKLTVL
B8: antibody 317 (antibody, V domains shown)
VH: QVQLVQSGAEVKKPGASVKVSCKVSGYTLTELSMHWVRQAPGKGLEWMGGFDPEDGETIYAQKFQGRVTMTEDTSTDTAYMELSSLRSEDTAVYYCASSPAAAGTSQYYYYYGMDVWGQGTTVTVSS
VL: not shown
B9: antibody 316 (antibody, V domains shown)
VH: QVHLVESGGGVVQPGRSLRLSCAASGFTLTAYAMHWVRQAPGKRLEWVALISYDGSVKKYADSVKGRITVSGDTSTNTLHLQMNSLRADDTAVYYCVRGGVSGPNSFDLWGQGTMVTVSS
VL: DVVMTQSPLSLPVTLGQPASMSCRSSQSLEYSDGNTYVNWFHQRPGQSPRRLIYKVSYRDSGVPDRFSGSGSGTDFTLQISRVEAEDVGIYYCMQGTHWPVTFGQGTKVEIK
B10: antibody 327 (antibody, V domains shown)
VH: QVQLVESGGGVVQPGRSLRLSCAASGFNLSNYAMHWVRQASGKGLEWVSLISYDGSIKYYTDSVKGRFTVSGDNSKNTLFLQMNSLRPDDSALYYCVRGGVSGPNSFDMWGQGTTVTVSS
VL: B9 VL with M21I, E30V, H42Q, K55Q, Y58I, D60A, T77A, Q79K
B11: antibody 365 (antibody, V domains shown)
VH: B10 VH with N31S
VL: B9 VL with M21I, E30V, H42Q, Y58I, D60A, T77A, Q79K, I90V
B12: antibody 366 (antibody, V domains shown)
VH: QVQLVESGGGVVQPGRSLRLSCAASGFTFSSYAMHWVRQAPGKGLEWVAVISYDGSNKYYADSVKGRFTISRDNSKNTLYLQMNSLRAEDTAVYYCARGLVGYNWFDPWGQGTLVTVSS
VL: DIQMTQSPSSVSASVGDRVTITCRASQGISSWLAWYQQKPGKAPKLLIYAASSLQSGVPSRFSGSGSGTDFTLTISSLQPEDFATYYCQQANSFTFGPGTKVDIK
B13: antibody 363 (antibody, V domains shown)
VH: EVQLLESGGGLVQPGGSLRLSCAASGFTFSTYAMSWVRQAPGKGLEWVSAISGSGGSTYYADSVKGRFTISRDNSKNTLYLQMNSLRAEDTAVYYCASGYSPDYWGQGTLVTVSS
VL: not shown
B14: antibody 345 (antibody, V domains shown)
VH: QVQLQESGPGLVKPSQTLSLTCTVSGGSISSGDYYWSWIRQPPGKGLEWIGYIYYSGSTYYNPSLKSRVTISVDTSKNQFSLKLSSVTAADTAVYYCARVGMVDNWNFEGNWFDPWGQGTLVTVSS
VL: QSALTQPRSVSGSPGQSVTISCTGTSSDVGGYNYVSWYQQHPGKAPKLMIYDVSKRPSGVPDRFSGSKSGNTASLTISGLQAEDEADYYCCSYAGSVVFGGGTKLTVL
B15: antibody 344 (antibody, V domains shown)
VH: QVQLVESGGGVVQPGRSLRLSCAASGFTFSSYAMHWVRQAPGKGLEWMAVISYDGSNKYYADSVKGRFTISRDNSKNTLYLQMNSLRAEDTAVYFCAKGYSGSYYEPFDYWGQGTLVTVSS
VL: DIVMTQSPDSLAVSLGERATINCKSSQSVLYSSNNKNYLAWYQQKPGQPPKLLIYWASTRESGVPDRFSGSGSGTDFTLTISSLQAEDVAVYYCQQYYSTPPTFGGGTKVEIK
B16: antibody 320 (antibody, V domains shown)
VH: QVQLVQSGAEVKKPGASVKVSCKASGYTFTSYGISWVRQAPGQGLEWMGWISAYNGNTNYAQKLQGRVTMTTDTSTRTAYMELRSLRSDDTAVYYCARVGCYYDSSGYSCAENFQHWGQGTLVTVSS
VL: QSVLTQPPSVSGAPGQRVTISCTGSSSNIGAGYDVHWYQQLPGTAPKLLIYGNSNRPSGVPDRFSGSKSGTSASLAITGLQAEDEADYYCQSYDSSLSALFGGGTKLTVL
B17: antibody 348 (antibody, V domains shown)
VH: QVQLVQSGSELKKPGASVKVSCKASGYTFTSYAMNWVRQAPGQGLEWMGWINTNTGNPTYAQGFTGRFVFSLDTSVSTAYLQISSLKAEDTAVYYCARDHELPNTSSWFGHFEYWGQGTLVTVSS
VL: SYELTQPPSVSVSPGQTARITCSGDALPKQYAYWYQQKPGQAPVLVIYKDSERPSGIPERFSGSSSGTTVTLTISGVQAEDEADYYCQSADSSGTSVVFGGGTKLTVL
B18: antibody 514 (antibody, V domains shown)
VH: EVQLVQSGAEVKKPGATVKISCKVSGYTFTDYYMHWVQQAPGKGLEWMGLVDPEDGETIYAEKFQGRVTITADTSTDTAYMELSSLRSEDTAVYYCATDCKYDILTGHYSAGYYYYGMDVWGQGTTVTVSS
VL: DIQMTQSPSSLSASVGDRVTITCRASQGISNYLAWFQQKPGKAPKSLIYAASSLQSGVPSKFSGSGSGTDFTLTISSLQPEDFATYYCQQYNSYPFTFGGGTKVEIK
B19: antibody 522 (antibody, V domains shown)
VH: EVQLVESGGGLVQPGGSLRLSCAASGFNFSSYSMNWVRQAPGKGLEWVSYISSSSSTIYYADSVKGRFTISRDNAKNSLYLQMNSLRDEDTAVYYCARGPEWDIVVVQAENWFDPWGQGTLVTVSS
VL: SYELTQPPSVSVSPGQTARITCSGDALPKQYVYWYQQKPGQAPVLVIYKDSERPSGIPERFSGSSSGTTVTLTISGVQAEDEADYYCQSADSSGTYRGVFGGGTKLTVL
B20: antibody 516 (antibody, V domains shown)
VH: QVELQQWGAGLLKPSETLSLTCAVYGGSFSGYYWSWIRQPPGKGLEWIGEINHSGSTNYNPSLKSRVTISIDTSKNQFSLKLSSVTAADTAVYYCARGTTVTTFFAPHWYFDLWGRGTLVTVSS
VL: QSALTQPASVSGSPGQSITISCTGTSSDVGGYNYVSWYQQHPGKAPKLMIYDVSNRPSGVSNRFSGSKSGNTASLTISGLQAEDEADYYCSSYTSSSTPYVFGTGTKVTVL
B21: antibody 517 (antibody, V domains shown)
VH: B10 VH with P88A
VL: B9 VL with M21I, E30V, H42Q, K55Q, Y58I, D60A, T77A, Q79K, I90V
B22: antibody 523 (antibody, V domains shown)
VH: EVQLVESGGVSVQPGGSLRLSCAASGFSFNTYDMHWVRQGTGKGLEWVSGIGTAGDTYYSDSVKGRCTISRDNAKNSLHLLVKSVRAADTAVYYCARGVGGIIDYWGQGTLVTVSS
VL: NFVLSQPHSVSESPGKTVTISCTGNSGSIATKYVQWFQQRPGSAPTTVIYEDNQRPSGVPDRFSGSSDSSSNSASLTISGLKTEDEAHYYCQSYHNRRWVFGGGTKLTVL
B23: antibody 527 (antibody, V domains shown)
VH: QLQLQESGPGLVKPSETLSLTCTVSGGSISSSSYYWGWIRQPPGKGLEWIGSIYYSGSTYYNPSLKSRVTISVDTSKNQFSLKLSSVTAADTAMYYCASHVVVIASSYWCFDLWGRGTLVTVSS
VL: QSALTQPASVSGSPGQSITISCTGTSSDVGGYNYVSWYQQHPGKAPKLMIYDVSNRPSGVSNRFSGSKSGNTASLTISGLQAEDEADYYCSSYTSISTWVFGGGTKLTVL

Target: SARS-CoV-2 full length spike protein, V483A mutant, expressed on the surface of CHO cells (SARS-CoV-2, UniProt P0DTC2 14-1273)

Point of comparison: B16, “median fluorescence intensity, fold over isotype control” value 19.7 fold over isotype. Against it:
- B1 — higher, 24.9 fold over isotype
- B2 — lower, 10.6 fold over isotype
- B3 — lower, 10.2 fold over isotype
- B4 — lower, 19 fold over isotype
- B5 — lower, 18.1 fold over isotype
- B6 — lower, 18.2 fold over isotype
- B7 — higher, 26.3 fold over isotype
- B8 — lower, 10.3 fold over isotype
- B9 — lower, 10.4 fold over isotype
- B10 — lower, 10.4 fold over isotype
- B11 — lower, 11.2 fold over isotype
- B12 — lower, 9.74 fold over isotype
- B13 — lower, 15.1 fold over isotype
- B14 — lower, 9.41 fold over isotype
- B15 — lower, 8.15 fold over isotype
- B17 — lower, 14.2 fold over isotype

Target: SARS-CoV-2 full length spike protein, V483A mutant (SARS-CoV-2, UniProt P0DTC2 14-1273)

Point of comparison: B23, “median fold over isotype” value 7.97 fold over isotype. Against it:
- B18 — lower, 1.39 fold over isotype
- B19 — lower, 6.75 fold over isotype
- B20 — lower, 2.61 fold over isotype
- B21 — higher, 11.5 fold over isotype
- B22 — lower, 3.76 fold over isotype
